From patent publication US20220017622A1 (Pfizer, published 2022)

Target: T1, human B7-H4 on cells (human, UniProt Q7Z7D3 25-282)
T1 sequence (looked up): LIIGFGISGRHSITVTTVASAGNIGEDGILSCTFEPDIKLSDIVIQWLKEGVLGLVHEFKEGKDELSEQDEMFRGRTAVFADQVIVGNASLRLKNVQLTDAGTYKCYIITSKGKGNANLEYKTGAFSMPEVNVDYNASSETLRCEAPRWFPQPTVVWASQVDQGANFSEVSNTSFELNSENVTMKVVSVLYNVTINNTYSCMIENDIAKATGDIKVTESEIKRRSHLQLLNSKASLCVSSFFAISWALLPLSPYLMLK
Experiment: cell-based or functional assay

B1: B7-H4xCD3 bispecific antibody 0998 (bispecific antibody, IgG2)
heavy 1: EVQLLESGGGLVQPGGSLRLSCAASGFTFSSYAMSWVRQAPGKGLEWVSAISGGGGSTQYADSVKGRFTISRDNSKNTLYLQMNSLRAEDTAVYYCARDIQWFGESTLFDYWGQGTLVTVSSASTKGPSVFPLAPCSRSTSESTAALGCLVKDYFPEPVTVSWNSGALTSGVHTFPAVLQSSGLYSLSSVVTVPSSNFGTQTYTCNVDHKPSNTKVDKTVERKCEVECPECPAPPVAGPSVFLFPPKPKDTLMISRTPEVTCVVVAVSHEDPEVQFNWYVDGVEVHNAKTKPREEQFNSTFRVVSVLTVVHQDWLNGKEYKCKVSNKGLPSSIEKTISKTKGQPREPQVYTLPPSREEMTKNQVSLTCEVKGFYPSDIAVEWESNGQPENNYKTTPPMLDSDGSFFLYSKLTVDKSRWQQGNVFSCSVMHEALHNHYTQKSLSLSPG
light 1: DIQLTQSPSTLSASVGDRVTITCRASQSIRSWLAWFQQKPGKAPKLLIYKASSLEGGVPSRFSGSGSGTEFTLTISSLQPDDFATYYCQQYNSYSRTFGQGTKVEIKRTVAAPSVFIFPPSDEQLKSGTASVVCLLNNFYPREAKVQWKVDNALQSGNSQESVTEQDSKDSTYSLSSTLTLSKADYEKHKVYACEVTHQGLSSPVTKSFNRGEC
heavy 2: EVQLVESGGGLVQPGGSLRLSCAASGFTFSDYYMTWVRQAPGKGLEWVAFIRNQARGYTSDHNPSVKGRFTISRDNAKNSLYLQMNSLRAEDTAVYYCARDRPSYYVLDYWGQGTTVTVSSASTKGPSVFPLAPCSRSTSESTAALGCLVKDYFPEPVTVSWNSGALTSGVHTFPAVLQSSGLYSLSSVVTVPSSNFGTQTYTCNVDHKPSNTKVDKTVERKCRVRCPRCPAPPVAGPSVFLFPPKPKDTLMISRTPEVTCVVVAVSHEDPEVQFNWYVDGVEVHNAKTKPREEQFNSTFRVVSVLTVVHQDWLNGKEYKCKVSNKGLPSSIEKTISKTKGQPREPQVYTLPPSREEMTKNQVSLTCLVKGFYPSDIAVEWESNGQPENNYKTTPPMLDSDGSFFLYSRLTVDKSRWQQGNVFSCSVMHEALHNHYTQKSLSLSPGK
light 2: DIQMTQSPSSLSASVGDRVTITCTSSQSLFNVRSQKNYLAWYQQKPGKAPKLLIYWASTRESGVPSRFSGSGSGTDFTLTISSLQPEDFATYYCKQSYDLFTFGGGTKVEIKRTVAAPSVFIFPPSDEQLKSGTASVVCLLNNFYPREAKVQWKVDNALQSGNSQESVTEQDSKDSTYSLSSTLTLSKADYEKHKVYACEVTHQGLSSPVTKSFNRGEC
T cell mediated tumor cell killing EC50, HCC1954-Luc: 410 nM

B2: B7-H4xCD3 bispecific antibody 1000 (bispecific antibody, IgG2)
heavy 1: EVQLLESGGGLVQPGGSLRLSCAASGFTFSSYAMSWVRQAPGKGLEWVSAISGGGGSTYYADSVKGRFTISRDNSKNTLYLQMNSLRAEDTAVYYCARDIQWHGESTLFDYWGQGTLVTVSSASTKGPSVFPLAPCSRSTSESTAALGCLVKDYFPEPVTVSWNSGALTSGVHTFPAVLQSSGLYSLSSVVTVPSSNFGTQTYTCNVDHKPSNTKVDKTVERKCEVECPECPAPPVAGPSVFLFPPKPKDTLMISRTPEVTCVVVAVSHEDPEVQFNWYVDGVEVHNAKTKPREEQFNSTFRVVSVLTVVHQDWLNGKEYKCKVSNKGLPSSIEKTISKTKGQPREPQVYTLPPSREEMTKNQVSLTCEVKGFYPSDIAVEWESNGQPENNYKTTPPMLDSDGSFFLYSKLTVDKSRWQQGNVFSCSVMHEALHNHYTQKSLSLSPG
light 1: DIQLTQSPSTLSASVGDRVTITCRASQSIRSWLAWFQQKPGKAPKLLIYKASSLEGGVPSRFSGSGSGTEFTLTISSLQPDDFATYYCQQYNSYSRTFGQGTKVEIKRTVAAPSVFIFPPSDEQLKSGTASVVCLLNNFYPREAKVQWKVDNALQSGNSQESVTEQDSKDSTYSLSSTLTLSKADYEKHKVYACEVTHQGLSSPVTKSFNRGEC
heavy 2: EVQLVESGGGLVQPGGSLRLSCAASGFTFSDYYMTWVRQAPGKGLEWVAFIRNQARGYTSDHNPSVKGRFTISRDNAKNSLYLQMNSLRAEDTAVYYCARDRPSYYVLDYWGQGTTVTVSSASTKGPSVFPLAPCSRSTSESTAALGCLVKDYFPEPVTVSWNSGALTSGVHTFPAVLQSSGLYSLSSVVTVPSSNFGTQTYTCNVDHKPSNTKVDKTVERKCRVRCPRCPAPPVAGPSVFLFPPKPKDTLMISRTPEVTCVVVAVSHEDPEVQFNWYVDGVEVHNAKTKPREEQFNSTFRVVSVLTVVHQDWLNGKEYKCKVSNKGLPSSIEKTISKTKGQPREPQVYTLPPSREEMTKNQVSLTCLVKGFYPSDIAVEWESNGQPENNYKTTPPMLDSDGSFFLYSRLTVDKSRWQQGNVFSCSVMHEALHNHYTQKSLSLSPGK
light 2: DIQMTQSPSSLSASVGDRVTITCTSSQSLFNVRSQKNYLAWYQQKPGKAPKLLIYWASTRESGVPSRFSGSGSGTDFTLTISSLQPEDFATYYCKQSYDLFTFGGGTKVEIKRTVAAPSVFIFPPSDEQLKSGTASVVCLLNNFYPREAKVQWKVDNALQSGNSQESVTEQDSKDSTYSLSSTLTLSKADYEKHKVYACEVTHQGLSSPVTKSFNRGEC
T cell mediated tumor cell killing EC50, HCC1954-Luc: 100 nM

B3: B7-H4xCD3 bispecific antibody 1001 (bispecific antibody, IgG2)
heavy 1: EVQLLESGGGLVQPGGSLRLSCAASGFTFSSYAMSWVRQAPGKGLEWVSAISGGGGSTYYADSVKGRFTISRDNSKNTLYLQMNSLRAEDTAVYYCARDIQWFGRSTLFDYWGQGTLVTVSSASTKGPSVFPLAPCSRSTSESTAALGCLVKDYFPEPVTVSWNSGALTSGVHTFPAVLQSSGLYSLSSVVTVPSSNFGTQTYTCNVDHKPSNTKVDKTVERKCEVECPECPAPPVAGPSVFLFPPKPKDTLMISRTPEVTCVVVAVSHEDPEVQFNWYVDGVEVHNAKTKPREEQFNSTFRVVSVLTVVHQDWLNGKEYKCKVSNKGLPSSIEKTISKTKGQPREPQVYTLPPSREEMTKNQVSLTCEVKGFYPSDIAVEWESNGQPENNYKTTPPMLDSDGSFFLYSKLTVDKSRWQQGNVFSCSVMHEALHNHYTQKSLSLSPG
light 1: DIQLTQSPSTLSASVGDRVTITCRASQSIRSWLAWFQQKPGKAPKLLIYKASSLEGGVPSRFSGSGSGTEFTLTISSLQPDDFATYYCQQYNSYSRTFGQGTKVEIKRTVAAPSVFIFPPSDEQLKSGTASVVCLLNNFYPREAKVQWKVDNALQSGNSQESVTEQDSKDSTYSLSSTLTLSKADYEKHKVYACEVTHQGLSSPVTKSFNRGEC
heavy 2: EVQLVESGGGLVQPGGSLRLSCAASGFTFSDYYMTWVRQAPGKGLEWVAFIRNQARGYTSDHNPSVKGRFTISRDNAKNSLYLQMNSLRAEDTAVYYCARDRPSYYVLDYWGQGTTVTVSSASTKGPSVFPLAPCSRSTSESTAALGCLVKDYFPEPVTVSWNSGALTSGVHTFPAVLQSSGLYSLSSVVTVPSSNFGTQTYTCNVDHKPSNTKVDKTVERKCRVRCPRCPAPPVAGPSVFLFPPKPKDTLMISRTPEVTCVVVAVSHEDPEVQFNWYVDGVEVHNAKTKPREEQFNSTFRVVSVLTVVHQDWLNGKEYKCKVSNKGLPSSIEKTISKTKGQPREPQVYTLPPSREEMTKNQVSLTCLVKGFYPSDIAVEWESNGQPENNYKTTPPMLDSDGSFFLYSRLTVDKSRWQQGNVFSCSVMHEALHNHYTQKSLSLSPGK
light 2: DIQMTQSPSSLSASVGDRVTITCTSSQSLFNVRSQKNYLAWYQQKPGKAPKLLIYWASTRESGVPSRFSGSGSGTDFTLTISSLQPEDFATYYCKQSYDLFTFGGGTKVEIKRTVAAPSVFIFPPSDEQLKSGTASVVCLLNNFYPREAKVQWKVDNALQSGNSQESVTEQDSKDSTYSLSSTLTLSKADYEKHKVYACEVTHQGLSSPVTKSFNRGEC
T cell mediated tumor cell killing EC50, HCC1954-Luc: 10 nM

B4: B7-H4xCD3 bispecific antibody 1003 (bispecific antibody, IgG2)
heavy 1: EVQLLESGGGLVQPGGSLRLSCAASGFTFSSYAMSWVRQAPGKGLEWVSAISGGGGSTYYADSVKGRFTISRDNSKNTLYLQMNSLRAEDTAVYYCARDIQWFGESTLFDYWGQGTLVTVSSASTKGPSVFPLAPCSRSTSESTAALGCLVKDYFPEPVTVSWNSGALTSGVHTFPAVLQSSGLYSLSSVVTVPSSNFGTQTYTCNVDHKPSNTKVDKTVERKCEVECPECPAPPVAGPSVFLFPPKPKDTLMISRTPEVTCVVVAVSHEDPEVQFNWYVDGVEVHNAKTKPREEQFNSTFRVVSVLTVVHQDWLNGKEYKCKVSNKGLPSSIEKTISKTKGQPREPQVYTLPPSREEMTKNQVSLTCEVKGFYPSDIAVEWESNGQPENNYKTTPPMLDSDGSFFLYSKLTVDKSRWQQGNVFSCSVMHEALHNHYTQKSLSLSPG
light 1: DIQMTQSPSSLSASVGDRVTITCRASQSTRSHLAWYQQKPGKAPKLLIYKASSLEGGVPSRFSGSGSGTDFTLTISSLQPEDFATYYCQQYGSYSRTFGQGTKVEIKRTVAAPSVFIFPPSDEQLKSGTASVVCLLNNFYPREAKVQWKVDNALQSGNSQESVTEQDSKDSTYSLSSTLTLSKADYEKHKVYACEVTHQGLSSPVTKSFNRGEC
heavy 2: EVQLVESGGGLVQPGGSLRLSCAASGFTFSDYYMTWVRQAPGKGLEWVAFIRNQARGYTSDHNPSVKGRFTISRDNAKNSLYLQMNSLRAEDTAVYYCARDRPSYYVLDYWGQGTTVTVSSASTKGPSVFPLAPCSRSTSESTAALGCLVKDYFPEPVTVSWNSGALTSGVHTFPAVLQSSGLYSLSSVVTVPSSNFGTQTYTCNVDHKPSNTKVDKTVERKCRVRCPRCPAPPVAGPSVFLFPPKPKDTLMISRTPEVTCVVVAVSHEDPEVQFNWYVDGVEVHNAKTKPREEQFNSTFRVVSVLTVVHQDWLNGKEYKCKVSNKGLPSSIEKTISKTKGQPREPQVYTLPPSREEMTKNQVSLTCLVKGFYPSDIAVEWESNGQPENNYKTTPPMLDSDGSFFLYSRLTVDKSRWQQGNVFSCSVMHEALHNHYTQKSLSLSPGK
light 2: DIQMTQSPSSLSASVGDRVTITCTSSQSLFNVRSQKNYLAWYQQKPGKAPKLLIYWASTRESGVPSRFSGSGSGTDFTLTISSLQPEDFATYYCKQSYDLFTFGGGTKVEIKRTVAAPSVFIFPPSDEQLKSGTASVVCLLNNFYPREAKVQWKVDNALQSGNSQESVTEQDSKDSTYSLSSTLTLSKADYEKHKVYACEVTHQGLSSPVTKSFNRGEC
T cell mediated tumor cell killing EC50, HCC1954-Luc: 100 nM
